{
  "source": "the nanobody polyreactivity screen of Harvey et al. (2022)",
  "data": [
    {"experiment": "yeast display, Sf9 membrane polyspecificity reagent, FACS + sequencing; frameworks hold sequencing errors", "summary_of_the_method": "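Galactose-induced (36–48 hours) yeast carrying a synthetic nanobody display library were exposed to 10% biotinylated, detergent-solubilized Sf9 membrane reagent at 4 °C for 1 hour. FACS followed streptavidin microbead enrichment, using low and high (top ~1%) gates for expression (anti-HA) and reagent binding (streptavidin). Colony PCR, MiSeq 2 × 250 sequencing and CDR-length filtering followed. Labels for polyreactivity reflect the gate of origin.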", "values": [
      {"sequence": "QVQLVESGGGLVQAGGSLRLSCAASGSIFSVNSMGWYRPAPGKERELVATIRTGDSTNYADSVKGRFTISRDNAKNTVYLQMNSLKPEDTAVYYCAAEWSSLNFDYWGHGTQVTVSS", "polyreactivity (PSR sort gate)": "low polyreactivity"},
      {"sequence": "QVQLVESGGGLVQAGGSLRLSCAASGSIFSVYAMGWYRQAPGKERELVASITRSGGRTYYADSVKGRFTISRDNPKNTVYLQMNSLKPEDTAVYYCAADRLGSISGYDYWGQGTQVTVSS", "polyreactivity (PSR sort gate)": "high polyreactivity"},
      {"sequence": "QVQLVESGGGLVQAGGSLRLSCAASGSIFSVYAMGWYRQAPGTERELVAGITRNGGTTYYADSVKGRFTISRDNAKHTVYLQMNSLKPEDTAVYYCAADNGFPEYGVNRVWSRYDYWGQGTQVTVSS", "polyreactivity (PSR sort gate)": "low polyreactivity"},
      {"sequence": "QVQLVESGGGLVQAGGSLRLSCAASGSIFSVYVMGWYRQAPGKERELVAAISWSDSDTYYADSVKGRFTISRDNAKNTVYLQMNSLKPEDTAVYYCAAETFDYADYIANGSGEYDYWGQGTQGTVSS", "polyreactivity (PSR sort gate)": "high polyreactivity"},
      {"sequence": "QVQLVESGGGLVQAGGSLRLSCAASGSIFSWNAMGWYRQAPGKERELVAAITSGGSTYYADSVKGRFTISRDNAKNTVYLQMNSLKPEDTAVYYCGWTYHYHRESWGQGTQVTVSS", "polyreactivity (PSR sort gate)": "low polyreactivity"},
      {"sequence": "QVQLVESGGGLVQAGGSLRLSCAASGSIFSWNARGCYRQAPGKERELVAGITWSGGGTSYADSVKGRFTISRDNAKNTVYLQMNSLKPEDTAVYYCAKEWIFDFNYWGQGTQVTVSS", "polyreactivity (PSR sort gate)": "low polyreactivity"},
      {"sequence": "QVQLVESGGGLVQAGGSLRLSCAASGSIFSWYAMGWYRQAPGKERELVAAITSDGGTNYADSVKGRFTISRDNAKNTVYLQMNRLKPEDTAVYYCAADYWYSWRRSHYAHRYGYWGQGTQVTVSS", "polyreactivity (PSR sort gate)": "low polyreactivity"},
      {"sequence": "QVQLVESGGGLVQAGGSLRLSCAASGSIFSYNAMGWYRQAHGKERELVAAIRASGGSTYYADSVKGRFTISRDNAKNTVYLQMNSLKPEDTAVYYCAARGYGWGQGTQVTVSS", "polyreactivity (PSR sort gate)": "high polyreactivity"},
      {"sequence": "QVQLVESGGGLVQAGGSLRLSCAASGSIFSYNAMGWYRQAPGKERELVAAIRASGGDTYYADSVKGRFTISRDNAKNTVYLQMNSLKPEDTAVYYCAARTYAHHYASHGYWGQGTQVTVSS", "polyreactivity (PSR sort gate)": "low polyreactivity"},
      {"sequence": "QVQLVESGGGLVQAGGSLRLSCAASGSIFSYNAMGWYRQAPGKERELVAAISRNGGRTYYADSVKGRFTISRDNAKNTVYLQMNSLKPEDTAVYYCNNAGYRAGTGSYDYWGQGTQVTVSS", "polyreactivity (PSR sort gate)": "high polyreactivity"},
      {"sequence": "QVQLVESGGGLVQAGGSLRLSCAASGSIFSYNAMGWYRQAPGKERELVAAISSGDYTYYADSVKGRFTISRDNAKNTVYLQMNSLKPEDTAVYYCAAPYVYSRGLSGDYYWGQGTQVTVSS", "polyreactivity (PSR sort gate)": "high polyreactivity"},
      {"sequence": "QVQLVESGGGLVQAGGSLRLSCAASGSIFSYYAMGCYRQAPGKERQLVASISWIGTSTYYADSVKGRFTISRDNAKNTFYLQINSLKPEDTAVYYCNADWTYYGFGTRLDYWGQGTQVTVSS", "polyreactivity (PSR sort gate)": "low polyreactivity"},
      {"sequence": "QVQLVESGGGLVQAGGSLRLSCAASGSIFSYYAMGGYRQAPGKARELVASISWNGTSTYYADSVKGRFTISRDNAKNTVYLQMNSLKPEDTAVYYCNVRFNYRGTYDYWGQGTQVTVSS", "polyreactivity (PSR sort gate)": "low polyreactivity"},
      {"sequence": "QVQLVESGGGLVQAGGSLRLSCAASGSIFSYYAMGWDRQAPGKERELVASISWNGTSTYYADSVKGRFTISRDNAKNTVYLQMNSLKPEDTAVYYCNGRFIYRGTYDYWGQGTQVTVSS", "polyreactivity (PSR sort gate)": "low polyreactivity"},
      {"sequence": "QVQLVESGGGLVQAGGSLRLSCAASGSIFSYYAMGWYRQAPGKEREFVAAITKSGGSTYYADSVKGRFTISRDNAKNTVYLQMNSLKPEDTAVYYCAVRYKLYYYRYDYWGQGTQVTVSS", "polyreactivity (PSR sort gate)": "low polyreactivity"},
      {"sequence": "QVQLVESGGGLVQAGGSLRLSCAASGSIFSYYAMGWYRQAPGKERELVAAINWSGGRTYYADSVKGRFTISRDNAKNTVYLQMNSLKPEDTAVYYCNAVSNFWFIVFYGNQPKTDDYWGQGTQVTVSS", "polyreactivity (PSR sort gate)": "high polyreactivity"},
      {"sequence": "QVQLVESGGGLVQAGGSLRLSCAASGSIFSYYAMGWYRQAPGKERELVAAIRWRTGNTYYADSVKGRFTISRDNAMNTVYLQMNSLKPEDTAVYYCNAVYRYNYGYREYEYWGQGTQVTVSS", "polyreactivity (PSR sort gate)": "high polyreactivity"},
      {"sequence": "QVQLVESGGGLVQAGGSLRLSCAASGSIFSYYAMGWYRQAPGKERELVAAITVRGGSTYYADSVKGRFTISRDNAKNTVYLQMNSLKPEDTGVYYCAADWLDESFSYGPYYYWGQGTQVTVSS", "polyreactivity (PSR sort gate)": "low polyreactivity"},
      {"sequence": "QVQLVESGGGLVQAGGSLRLSCAASGSIFSYYTMGWYRQAPGQERELVAAISRRGGRTYYADSVKGRFTISRDNAKNTVYLQMNSLKPEDTAVYYCAAEWAGWNNEMDYWGQVTQVTVSS", "polyreactivity (PSR sort gate)": "high polyreactivity"},
      {"sequence": "QVQLVESGGGLVQAGGSLRLSCAASGSIFTADAMGWYRQAPGKERELVAAISRSGGRTYYADSVKGRFTISRDNAKNTDYLQMNSLKPEDTAVYYCAAAFASQYRVVKYYYWGQGTQVTVSS", "polyreactivity (PSR sort gate)": "high polyreactivity"},
      {"sequence": "QVQLVESGGGLVQAGGSLRLSCAASGSIFTAYTMGWYRQAPGKERELVAAITERGGSTYYADSVKGRFTISRDNAKNTVYLQMNSLKPEDTAVYYCNAVWYFKPPPLYYIPYRQYDYWGQGTQVTVSS", "polyreactivity (PSR sort gate)": "low polyreactivity"},
      {"sequence": "QVQLVESGGGLVQAGGSLRLSCAASGSIFTDNAMGRYRQAPGKERELVAAITSNGGSTYYADSVKGRFTISRDNAKNTVYLQMNSLKPEDTAVYYCAADSLYREDDYWGQGTQVTVSS", "polyreactivity (PSR sort gate)": "low polyreactivity"},
      {"sequence": "QVQLVESGGGLVQAGGSLRLSCAASGSIFTEKAMGWYRQAPGKERELVATITITGSTNYADSVKGRFTISRDNAKNTVYLQLNSLKPEETAVYYCNADLYIAFSASAYDYWGQGTQVTVSS", "polyreactivity (PSR sort gate)": "low polyreactivity"},
      {"sequence": "QVQLVESGGGLVQAGGSLRLSCAASGSIFTENAMGWYRQAPGKERELVATITITGSTNYADSVKGRFTISRDNAKNTVYLQMNSLKPEDTAVYYCNADLYIAFSASAYDYWGQGTQVTVSS", "polyreactivity (PSR sort gate)": "low polyreactivity"},
      {"sequence": "QVQLVESGGGLVQAGGSLRLSCAASGSIFTENAMGWYRQPPGKERELVATITITGSTNYADSVKGRFTISRDNAKKTVYLQMNSLKPADTAVYYCNADLYIAFSASAYDYWGQGTQVTVSS", "polyreactivity (PSR sort gate)": "low polyreactivity"},
      {"sequence": "QVQLVESGGGLVQAGGSLRLSCAASGSIFTEYAMGWYRQAPGKERELVAAISWSGATTYYADSVKGRFTISRDNAKNTVYLQMNSLKPEDTAVYYCAARWANRSYEYWGQGTQVTVSS", "polyreactivity (PSR sort gate)": "low polyreactivity"},
      {"sequence": "QVQLVESGGGLVQAGGSLRLSCAASGSIFTEYAMGWYRQAPGKERELVADINSGDITYYADSVKGRFTISRDNAKNTVYLQMNSLKPEDTAVYYCATGWYYTSSTYRSSDFDYWGQGTQVTVSS", "polyreactivity (PSR sort gate)": "low polyreactivity"},
      {"sequence": "QVQLVESGGGLVQAGGSLRLSCAASGSIFTFYAMGLYRQAPGKERELVAAISYRGGSTYYADSVKGRFTISRDNAKNTVYLQINSLKPEDTAVYYCAAARFPVFIQGYRMEYWGQGTQVTVSS", "polyreactivity (PSR sort gate)": "low polyreactivity"},
      {"sequence": "QVQLVESGGGLVQAGGSLRLSCAASGSIFTFYAMGWYRQAPGKERELVAAISYRGGSTYYADSVKGRFTISRDNAKNTVYLQMNSLKPEDTAVYYCAAARFPVFIQGYRMEYWGQGTQVTVSS", "polyreactivity (PSR sort gate)": "low polyreactivity"},
      {"sequence": "QVQLVESGGGLVQAGGSLRLSCAASGSIFTFYAMGWYRQAPGKERELVATITISTGSTYYADSVKGRFTISRDNAKNTVYFQMNSLKPEDTAVYYCNAYISRRGKRGYNYWGQGTQVTVSS", "polyreactivity (PSR sort gate)": "high polyreactivity"},
      {"sequence": "QVQLVESGGGLVQAGGSLRLSCAASGSIFTGNAMGWYREAPGKERELVAAITNGGITNYADSVKRRFTISRDNAMNTVYLQMNSLKPEDTAVYYCAADYVDFYSFRRFDYWGQGTQVTVSS", "polyreactivity (PSR sort gate)": "low polyreactivity"},
      {"sequence": "QVQLVESGGGLVQAGGSLRLSCAASGSIFTGNTMGSDRQAPGKERELVAAISRSGGSTYYADSVKGRFTISRDNAKNTVYLQMNSLKPEDTAVYYCAAYRTHGPPRAIRFDYWGQGTQVTVSS", "polyreactivity (PSR sort gate)": "high polyreactivity"},
      {"sequence": "QVQLVESGGGLVQAGGSLRLSCAASGSIFTGYAMGWYRQAPGKERELVAAISNSGTSTYYADSVKGRFTISRDNAKNTVYLQMNSLKPEDTAVYYCNTVGHRWLSDDDYWGQGTQVTVSS", "polyreactivity (PSR sort gate)": "low polyreactivity"},
      {"sequence": "QVQLVESGGGLVQAGGSLRLSCAASGSIFTGYAMGWYRQAPGKERELVARITKRGGSTYYADSVKGRFTISRDNAKNTVYLQMNSLKPEDTAVYYCNADRKFPYGSYETHDYWGQGTQVTVSS", "polyreactivity (PSR sort gate)": "high polyreactivity"},
      {"sequence": "QVQLVESGGGLVQAGGSLRLSCAASGSIFTHYAMGWYRPAPGKERELVATISNGDGSTYYADSVKGRFTISRDNAKNTVYLQMNSLKPEDTAVYYCNVDDFSQYADDSWGYEYWGQGTQVTVSS", "polyreactivity (PSR sort gate)": "low polyreactivity"},
      {"sequence": "QVQLVESGGGLVQAGGSLRLSCAASGSIFTINAMGWYRQAPGKVRELVAAISWSGAPTYYADSVKGRFTISRDNAKNTVYLQMNSLTPEDTAVYYCATGYNYLDRNTGYVHRFDYWGQGTQVTVSS", "polyreactivity (PSR sort gate)": "low polyreactivity"},
      {"sequence": "QVQLVESGGGLVQAGGSLRLSCAASGSIFTIYAMGWYRQAPGKERELVAAISFSGGSTYYADSVKGRFTISRDNAKNSVYLQMNSLKPEDTAVYYCAADGGFTYDYWGQGTQVTVSS", "polyreactivity (PSR sort gate)": "low polyreactivity"},
      {"sequence": "QVQLVESGGGLVQAGGSLRLSCAASGSIFTIYAMGWYRQAPGKERELVAAITRSGGSTSYADSVKGRFTISRDNAKNTVYLQMNSLKPEDTAVYYCNKDLNFAKYISSILYDYWGQGTQVTVSS", "polyreactivity (PSR sort gate)": "low polyreactivity"},
      {"sequence": "QVQLVESGGGLVQAGGSLRLSCAASGSIFTIYAMGWYRQAPGKERELVATITGGGGSTYYADSVKGRFTISRDNAKNTVYLQMNSLKPEDTAVYDCAADSPGWTYTSRSYDYWGQGTQVTVSS", "polyreactivity (PSR sort gate)": "low polyreactivity"},
      {"sequence": "QVQLVESGGGLVQAGGSLRLSCAASGSIFTKYAMGWYRQAPGKERELVAAISWSGVSTYYADSVKGRFTISRDNAKHTVYLQMNSLKPEDTAVYYCNTRRYRSYGTTRYGYWGQGTQLTVSS", "polyreactivity (PSR sort gate)": "high polyreactivity"}
    ]}
  ]
}
